# Results from the DeepSol protein solubility set.
# Experiment: soluble on expression in E. coli; label from the status in PepcDB or PDB records
row,Sequence,soluble on expression in E. coli
1,MAEPLLVVGLGNPGANYARTRHNLGFVVADLLAARLGAKFKAHKRSGAEVATGRSAGRSLVLAKPRCYMNESGRQIGPLAKFYSVAPANIIVIHDDLDLEFGRIRLKIGGGEGGHNGLRSVVAALGTKDFQRVRIGIGRPPGRKDPAAFVLENFTPAERAEVPTICEQAADATELLIEQGMEPAQNRVHAWKLAAALEHHHHHH,soluble
2,PDSAVVRIHSSSGTTGKPVIIPYTRNDVDTWAELMMRCYMLAGLTNQDRIQITPGYGLWTAGIGFQLGAERLGAMAIPTGPGNTEKQLEMLVDLKTTALASTSSYALLLAEEIEKRGLKDRIHLRTGVIGSERWSEKMRSRIENELGIETFDIYGLTEIYGPGIALDCSYHEGMHYW,not soluble
3,APTSSNDTGKTVVAVTACPTGIAHTYMAAEKLQETANKLGVRIKVETNGSRGVENRLTDKEIAEADGVIIAADVQVDMPRFDGKHLIAKPVAAGIHKPEELIKEAISGNAPVYKAESGSEATEST,not soluble
4,MGSDKIHHHHHHMISMKPRYKPDWESLREHTVPKWFDKAKFGIFIHWGIYSVPGWATPTGELGKVPMDAWFFQNPYAEWYENSLRIKESPTWEYHVKTYGENFEYEKFADLFTAEKWDPQEWADLFKKAGAKYVIPTTKHHDGFCLWGTKYTDFNSVKRGPKRDLVGDLAKAVREAGLRFGVYYSGGLDWRFTTEPIRYPEDLSYIRPNTYEYADYAYKQVMELVDLYLPDVLWNDMGWPEKGKEDLKYLFAYYYNKHPEGSVNDRWGVPHWDFKTAEYHVNYPGDLPGYKWEFTRGIGLSFGYNRNEGPEHMLSVEQLVYTLVDVVSKGGNLLLNVGPKGDGTIPDLQKERLLGLGEWLRKYGDAIYGTSVWERCCAKTEDGTEIRFTRKCNRIFVIFLGIPTGEKIVIEDLNLSAGTVRHFLTGERLSFKNVGKNLEITVPKKLLETDSITLVLEAVEE,not soluble
5,MVDPVGFAEAWKAQFPDSEPPRMELRSVGDIEQELERCKASIRRLEQEVNQERFRMIYLQTLLAKEKKSYDRQRWGFRRAAQAPDGASEPRASASRPQPAPADGADPPPAEEPEARPDGEGSPGKARPGTARRPGAAASGERDDRGPPASVAALRSNFERIRKGHGQPGADAEKPFYVNVEFHHERGLVKVNDKEVSDRISSLGSQAMQMERKKSQHGAGSSVGDASRPPYRGRSSESSCGVDGDYEDAELNPRFLKDNLIDANGGSRPPWPPLEYQPYQSIYVGGMMEGEGKGPLLRSQSTSEQEKRLTWPRRSYSPRSFEDCGGGYTPDCSSNENLTSSEEDFSSGQSSRVSPSPTTYRMFRDKSRSPSQNSQQSFDSSSPPTPQCHKRHRHCPVVVSEATIVGVRKTGQIWPNDGEGAFHGDADGSFGTPPGYGCAADRAEEQRRHQDGLPYIDDSPSSSPHLSSKGRGSRDALVSGALESTKASELDLEKGLEMRKWVLSGILASEETYLSHLEALLLPMKPLKAAATTSQPVLTSQQIETIFFKVPELYEIHKEFYDGLFPRVQQWSHQQRVGDLFQKLASQLGVYRAFVDNYGVAMEMAEKCCQANAQFAEISENLRARSNKDAKDPTTKNSLETLLYKPVDRVTRSTLVLHDLLKHTPASHPDHPLLQDALRISQNFLSSINEEITPRRQSMTVKKGEYRQLLKDSFMVELVEGARKLRHVFLFTDLLLCTKLKKQSGGKTQQYDCKWYIPLTDLSFQMVDELEAVPNIPLVPDEELDALKIKISQIKSDIQREKRANKGSKATERLKKKLSEQESLLLLMSPSMAFRVHSRNGKSYTFLISSDYERAEWRENIREQQKKCFRSFSLTSVELQMLTNSCVKLQTVHSIPLTINKEDDESPGLYGFLNVIVHSATGFKQSSNLYCTLEVDSFGYFVNKAKTRVYRDTAEPNWNEEFEIELEGSQTLRILCYEKCYNKTKIPKEDGESTDRLMGKGQVQLDPQALQDRDWQRTVIAMNGIEVKLSVKFNSREFSLKRMPSRKQTGVFGVKIAVVTKRERSKVPYIVRQCVEEIERRGMEEVGIYRVSGVATDIQALKAAFDVNNKDVSVMMSEMDVNAIAGTLKLYFRELPEPLFTDEFYPNFAEGIALSDPVAKESCMLNLLLSLPEANLLTFLFLLDHLKRVAEKEAVNKMSLHNLATVFGPTLLRPSEKESKLPANPSQPITMTDSWSLEVMSQVQVLLYFLQLEAIPAPDSKRQSILFSTEV,soluble
